Experiments:
[1] = target: T1, his-tagged murine TIGIT (Acro Biosystems #TIT-M52E6) (murine, UniProt P86176 29-148, limits assumed); assay: SPR (Carterra LSA), scFv-Fc captured, His-TIGIT analyte; repeat
T1 construct: Bought protein; also called mouse his-tagged TIGIT; not shown: his tag
T1 sequence (looked up): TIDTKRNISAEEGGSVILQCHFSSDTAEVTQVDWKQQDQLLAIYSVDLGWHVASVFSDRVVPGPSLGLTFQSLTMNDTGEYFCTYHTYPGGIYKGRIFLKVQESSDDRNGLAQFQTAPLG
Procedure: (§1) Binding affinities of anti-TIGIT antibodies to human, cyno, and murine TIGIT were measured by Surface Plasmon Resonance (SPR) on a Carterra LSA instrument. Goat anti-human Fc antibody was amine coupled to a HC30M chip. ScFv-Fc supernatants were diluted 30-fold with HBSTE and were captured by the anti-human Fc coupled HC30M chip. A 1:2 dilution series of his-tagged human TIGIT, starting at 400 nM, was injected onto the chip for binding. A dilution series was also carried out for cyno TIGIT and murine TIGIT. Data were analyzed using the Carterra™ Kinetics software.

[2] = target: T2, His-tagged cynomolgus monkey TIGIT (Acro Biosystems #TIT-05223) (cynomolgus monkey, UniProt A0A7N9I9V4 89-209); assay: as above
T2 construct: Bought protein; also called cyno TIGIT; cynomolgus TIGIT; not shown: His tag
T2 sequence (A0A7N9I9V4 entry or part of it): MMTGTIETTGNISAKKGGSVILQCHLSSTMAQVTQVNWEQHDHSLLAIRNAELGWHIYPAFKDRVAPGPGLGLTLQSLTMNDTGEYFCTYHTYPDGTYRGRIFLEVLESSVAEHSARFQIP
Procedure: as §1

[3] = target: T3, human TIGIT on Jurkat cells (TIGIT/NFAT reporter Jurkat cells, BPS Bioscience #60538); Promega TIGIT Effector … (human, UniProt Q495A1 22-244); assay: flow cytometry, TIGIT/NFAT Jurkat cells, 10 ug/ml
T3 construct: whole, on cells; Same protein on two bought Jurkat lines (flow cytometry: BPS; bioassay: Promega); also called hu TIGIT cells; cells expressing human TIGIT
T3 sequence (looked up): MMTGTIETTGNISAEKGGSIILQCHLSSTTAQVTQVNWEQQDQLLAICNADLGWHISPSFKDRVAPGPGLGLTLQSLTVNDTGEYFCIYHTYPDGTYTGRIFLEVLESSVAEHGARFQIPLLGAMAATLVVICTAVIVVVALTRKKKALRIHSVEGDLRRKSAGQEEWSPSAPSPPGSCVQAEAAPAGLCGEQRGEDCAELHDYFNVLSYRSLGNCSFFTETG

[4] = target: T4, his-tagged human TIGIT (Acro Biosystems #TIT-H52H3) (human, UniProt Q495A1 22-141); assay: SPR (Carterra LSA), scFv-Fc captured, His-TIGIT analyte
T4 construct: Bought protein; also called His-tagged-TIGIT (human); not shown: his tag
T4 sequence (looked up): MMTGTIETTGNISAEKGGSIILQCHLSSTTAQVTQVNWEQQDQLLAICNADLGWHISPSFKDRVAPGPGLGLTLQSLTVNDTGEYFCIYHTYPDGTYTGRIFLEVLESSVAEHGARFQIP
Outline: (§2)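 Affinity from His-TIGIT analyte injected in 1:2 serial dilution over antibody captured as scFv-Fc via amine-coupled goat anti-human Fc on an HC30M surface. Supernatants diluted 30-fold in HBSTE; kinetic fitting.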

[5] = target: T3, human TIGIT on Jurkat cells (TIGIT/NFAT …); assay: cell-based or functional assay
[6] = target: T1, his-tagged murine TIGIT (Acro …); assay: ELISA, coated His-TIGIT, 1 ug/ml
[7] = target: T4, his-tagged human TIGIT (Acro Biosystems …); assay: ELISA, coated His-TIGIT, 1 ug/ml
[8] = target: T2, His-tagged cynomolgus monkey TIGIT …; assay: ELISA, coated His-TIGIT, 1 ug/ml
[9] = target: T1, his-tagged murine TIGIT (Acro …); assay: SPR (Carterra LSA), scFv-Fc captured, His-TIGIT analyte
Outline: as §2

[10] = target: T2, His-tagged cynomolgus monkey TIGIT …; assay: as above
Outline: as §2

Binder	Kd [1] [nM]	Kd [2] [nM]	MFI [3] [MFI]	Kd [4] [nM]	max. signal (% of 22G2) [5]	Elisa OD450 [6] [OD450]	Elisa OD450 [7] [OD450]	Elisa OD450 [8] [OD450]	Kd [9] [nM]	Kd [10] [nM]
43645p1.H10 (scFv, V domains shown) VH: EVQLLESGGGLVQAGGSLRLSCAASGFTFDDYVMTWVRQAPGKGLEWVSLINWSGDRTYYADSVKGRFTISRDNSKNTLYLQMNSLRAEDTAVYYCVKHNLNYYYGMDVWGQGTTVTVSS VL: QSVLTQPPSVSGTPGQRVTISCSGTISNVGNKYVSWYQQVPGTAPKLLIDYNQRPSGVPDRFSGSQSGTSASLTISGLQSEDEADYYCATWDDSLKGWVFGGGTKLTVL	0.595	0.181	10000	0.128	109 % of 22G2	1.7	2	1.85		
43645p1.D3 (scFv, V domains shown) VH: EVQLLESGGGLVQPGGSLRLSCAASGFTFSSYWMSWVRQAPGKGLEWVSGIHISDSTYYADSVKGRFTISRDNSKNTLYLQMNSLRAEDTAVYYCAKGHTVLQYGMDVWGQGTTVTVSS VL: QSGLTQPPSASGTPGQRVTISCSGDISNTRNNYVSWYQQLPGTAPKLLIYGNHQRPSGVPDRFSGSKSATSASLAISGLQSEDEADYYCGTWDNTLNAWVFGGGTKLTVL	19	0.32	9350	0.0171	115 % of 22G2	1.9	2.13	1.74		
43586p1.2.B2 (scFv, V domains shown) VH: EMQLLESGGGLVQPGGSLRLSCAASGFTFDDYVMSWVRQAPGKGLEWVSLINWNGDKTYYADSVKGRFTISRDNSKNTLYLQMNSLRAEDTAIYYCAKHWIVFQYGMDVWGQGTTVTVSS VL: QSVLTQPPSASGTPGQRVTISCSGSISNIETKYVSWYQQLPGTAPKLLIYNSDQRPSGVPDRFSGSKSGTSASLAISGLQSEDEADYYCVSWDASLKSWVFGGGTKLTVL	1.3	1.8	9270	0.245	121 % of 22G2	2.01	2.06	1.57	3.28	14.3
43586p2.G10 (scFv, V domains shown) VH: EVQLLESGGGLVQPGGSLRLSCAASGFTFDDYVMSWVRQAPGKGLEWVSLINWSGGTTYYADSVKGRFTISRDNSKNTLYLQMNSLRAEDTAVYYCAKHWIVYQYGMDVWGQGTTVTVSS VL: QSVLTQPSSASGTPGQRVTISCSGTISNIETKYVSWYKYVSWYQQLPGTAPKLLIYNNVQRPSGVPDRFSGSQSGTSASLAISGLQSEDEAHYYCASWEGGLNSWVFGGGTKLTVL	0.919	3.7	9400	0.267	99 % of 22G2	2.23	2.21	1.83	3.05	
43586p1.2.C11 (scFv, V domains shown) VH: EVQLLESGGGLVQPGGSLRLSCAASGFTFDDYVMSWVRQAPGKGLEWVSLINWNGDKTYCADSVKGRFTISRDNSKNTLYLQMNSLRAEDTAIYYCAKHWIVFQYGMDVWGQGTTVTVSS VL: QSVLTQPPSASGTPGQRVTISCSGSISNIETKYVSWYQQLPGTAPKLLIYNSDQRPSGVPDRFSGSKSGTSASLAISGLQSEDEADYYCVSWDASLKSWVFGGGTKLTVL	1.8	1.9	9550	0.0517	106 % of 22G2	2.01	2.03	1.81	1.45	2.56
43645p1.D1 (scFv, V domains shown) VH: EVQLLESGGDLVQSGGSLRLSCAASGFSFWGYAMTWVRQAPGKGLEWVSTIAGNSYTYYADSVKGRFTISRDNSKNMVYLQMNGLRAEDTAVYYCAKDRSFYNYYDIDVWGQGTTVTVSS VL: not shown	14	2.9	9250	0.343	111 % of 22G2	0.047	2.02	1.51		17.6

Reference: patent US20230265187A1 (published 2023)
